In patent publication US20240084011A1:
Positions count from the first letter of the chain named.

B1: 78-8D14 scFv (scFv, part only; not given: Linker, domain order, 3xFLAG tag, V domains shown, not shown: another chain or arm of the molecule; small tags and cut ends)
VH: EVQLVESGGGLVQPGGSLRLSCAASGFTFSSYVMHWVRQAPGKGLEWVSAISWSGRGTYYADSVKGRFTISRDNSKNTLYLQMNSLRAEDTAVYYCARGRLFGLARYGEAFDVWGQGTLVTVSS
VL: DIQMTQSPSSLSASVGDRVTITCQASRDISNYLNWYQQKPGKAPKLLIYDASNLETGVPSRFSGSGSGTDFTFTISSLQPEDIATYYCQQFNSFPLTFGQGTKVEIK
B2: 78-8D2 scFv (scFv, part only; not given: Linker, domain order, 3xFLAG tag, V domains shown, not shown: another chain or arm of the molecule; small tags and cut ends)
VH: B1 VH with S52T, R106L
VL: B1 VL with R27K, T74I
B3: 78-24D1 scFv (scFv, part only; not given: Linker, domain order, 3xFLAG tag, V domains shown, not shown: another chain or arm of the molecule; small tags and cut ends)
VH: EVQLVESGGGLVQPGGSLRLSCAASGFTFTSYSMHWVRQAPGKGLEWVSGISGSGRSTSYADSVKGRFTISRDNSKNTLYLQMNSLRAEDTAVYYCARDLMAFNLTRAGGFDVWGQGTLVTVSS
VL: B1 VL with R27Q, Y32F, F91G, N92D, S93A, F94W, L96W
B4: 78-24D12 scFv (scFv, part only; not given: Linker, domain order, 3xFLAG tag, V domains shown, not shown: another chain or arm of the molecule; small tags and cut ends)
VH: B3 VH with T30S, R56L, A108T
VL: B1 VL with R27H, S30L, F91G, N92H, S93A, F94W, P95L, L96W
B5: 78-8D6 scFv (scFv, part only; not given: Linker, domain order, 3xFLAG tag, V domains shown, not shown: another chain or arm of the molecule; small tags and cut ends)
VH: B1 VH with A23V, R56G, R106L
VL: B1 VL with R27K, D50N
B6: 78-8D10 scFv (scFv, part only; not given: Linker, domain order, 3xFLAG tag, V domains shown, not shown: another chain or arm of the molecule; small tags and cut ends)
VH: MEVQLVESGGGLVQPGGSLRLSCAASGFTFSSYVMHWVRQAPGKGLEWVSAISWSGRGTYYADSVKGRFTISRDNSKNTLYLQMNSLRAEDTAVYYCARGRLFGLALYGEAFDVWGQGTLVTVSS
VL: B1 VL with R27K
B7: 78-24D17 scFv (scFv, part only; not given: Linker, domain order, 3xFLAG tag, V domains shown, not shown: another chain or arm of the molecule; small tags and cut ends)
VH: B3 VH with T30S, Y32S, R56G, D99Y, A102S, A108T, G109S, G110W
VL: B1 VL with R27Q, D28A, F91G, N92D, S93A, F94W, L96W
B8: 78-8D7 scFv (scFv, part only; not given: Linker, domain order, 3xFLAG tag, V domains shown, not shown: another chain or arm of the molecule; small tags and cut ends)
VH: B1 VH with R56A, L104R, R106L
VL: B1 VL with R27K, N31I, S52F, P59S
B9: 78-36 scFv (scFv, part only; not given: Linker, domain order, 3xFLAG tag, V domains shown, not shown: another chain or arm of the molecule; small tags and cut ends)
VH: MEVQLVESGGGLVQPGGSLRLSCVASGFTFSSYYMHWVRQAPGKGLEWVSAISGSGGSTYYADSVKGRFTISRDNSKNTLYLQMNSLRAEDTAVYYCARGRQVGKSSFGEAFDVWGQGTLVTVSS
VL: B1 VL with R27Q, N92T, L96Y
B10: 78-24D8 scFv (scFv, part only; not given: Linker, domain order, 3xFLAG tag, V domains shown, not shown: another chain or arm of the molecule; small tags and cut ends)
VH: B3 VH with E6K, T30S, A108T
VL: B1 VL with R27Q, S76N, F91G, N92D, S93A, F94W, L96W
B11: 78-8 scFv (scFv, part only; not given: Linker, domain order, 3xFLAG tag, V domains shown, not shown: another chain or arm of the molecule; small tags and cut ends)
VH: B1 VH with W53G, R56G, F102I, R106L
VL: B1 VL with R27K
B12: 78-8D22 scFv (scFv, part only; not given: Linker, domain order, 3xFLAG tag, V domains shown, not shown: another chain or arm of the molecule; small tags and cut ends)
VH: B1 VH with R56S
VL: B1 VL with R27K, P95A
B13: 78-28 scFv (scFv, part only; not given: Linker, domain order, 3xFLAG tag, V domains shown, not shown: another chain or arm of the molecule; small tags and cut ends)
VH: EVQLVESGGGLVQPGGSLRLSCAASGFTFSSYYMHWVRQAPGKGLEWVSAIYGNGGYTYYADSVKGRFTISRDNSKNTLYLQMNSLRAEDTAVYYCARGRPARHQVGFDVWGQGTLVTVSS
VL: B1 VL with R27L, F91L, N92Y, S93T, F94V
B14: 78-8D4 scFv (scFv, part only; not given: Linker, domain order, 3xFLAG tag, V domains shown, not shown: another chain or arm of the molecule; small tags and cut ends)
VH: B1 VH with S52T, R56G, A105V
VL: B1 VL with R27K
B15: 78-24D9 scFv (scFv, part only; not given: Linker, domain order, 3xFLAG tag, V domains shown, not shown: another chain or arm of the molecule; small tags and cut ends)
VH: B3 VH with T30S, Y32S, S54W, R56G, D99Y, A102S, A108T, G110W
VL: B1 VL with R27Q, S30A, F91S, N92D, S93A, F94W, L96W
B16: 78-8D5 scFv (scFv, part only; not given: Linker, domain order, 3xFLAG tag, V domains shown, not shown: another chain or arm of the molecule; small tags and cut ends)
VH: B1 VH with R56G, R106L
VL: B1 VL with R27K

The binders below were run against recombinant mouse CTLA-4 protein (mouse) (UniProt P09793) (assay: SPR (Pioneer FE, OneStep), 25 C; 3xFLAG scFv captured by anti-FLAG M2, mouse CTLA-4 as analyte).
Sequence of recombinant mouse CTLA-4 protein (mouse) (P09793 36-161 limits assumed): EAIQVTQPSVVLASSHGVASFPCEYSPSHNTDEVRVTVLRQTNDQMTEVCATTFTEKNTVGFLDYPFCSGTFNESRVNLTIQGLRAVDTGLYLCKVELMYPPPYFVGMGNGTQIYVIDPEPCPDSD

Compared with B1, B2 is 1.8-fold higher in Kd: 170 pM for the first, 300 pM for the second. The first binds more tightly here.

Going from B3 to B4, the Kd falls from 59 pM to 10 pM (5.9-fold).

First: B5
Second: B6
The Kd of the first is 2.6-fold lower: 190 pM for the first, 490 pM for the second.

First: B7
Second: B8
The Kd of the first is 2.7-fold higher: 1060 pM for the first, 390 pM for the second.

Compared with B9, B10 is 98-fold lower in Kd: 980 pM for the first, 10 pM for the second.

Compared with B11, B12 is 6.2-fold higher in Kd: 60 pM for the first, 370 pM for the second.

First: B13
Second: B14
The Kd of the first is 13-fold higher: 2570 pM for the first, 200 pM for the second. The second binds more tightly here.

Compared with B15, B16 is 2.6-fold lower in Kd: 1110 pM for the first, 420 pM for the second.

The binders below were run against recombinant human CTLA-4 protein (human) (UniProt P16410) (assay: SPR (Pioneer FE, OneStep), 25 C; 3xFLAG scFv captured by anti-FLAG M2, human CTLA-4 as analyte).
Sequence of recombinant human CTLA-4 protein (human) (P16410 36-161 limits assumed): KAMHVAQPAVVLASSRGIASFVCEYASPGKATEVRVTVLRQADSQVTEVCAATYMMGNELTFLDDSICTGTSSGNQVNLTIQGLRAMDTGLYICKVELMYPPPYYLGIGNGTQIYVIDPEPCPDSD

B1 and B2 are within 1.5-fold of each other in Kd: 320 pM for the first, 370 pM for the second.

First: B3
Second: B4
The Kd of the first is 2.5-fold lower: 1150 pM for the first, 2880 pM for the second.

Going from B5 to B6, the Kd rises from 240 pM to 580 pM (2.4-fold).

Compared with B7, B8 is 2.9-fold lower in Kd: 870 pM for the first, 300 pM for the second.

Compared with B10, B11 is 120-fold higher in Kd: 1460 pM for the first, 168000 pM for the second. The first binds more tightly here.

B12 and B14 are within 1.5-fold of each other in Kd: 160 pM for the first, 210 pM for the second.

Compared with B15, B16 is 1.6-fold lower in Kd: 1180 pM for the first, 740 pM for the second.
